Measured values reported in publication PMC5037430, “High throughput cell-based assay for identification of glycolate oxidase inhibitors as a potential treatment for Primary Hyperoxaluria Type 1” (Scientific Reports, 2016).

Substrate: O=C(O)CO
Experiment: purified protein
Details: FMN

B1: glycolate oxidase (GO); hydroxyacid oxidase 1 (HAO1) (Homo sapiens) (protein)
chain: MLPRLICINDYEQHAKSVLPKSIYDYYRSGANDEETLADNIAAFSRWKLYPRMLRNVAETDLSTSVLGQRVSMPICVGATAMQRMAHVDGELATVRACQSLGTGMMLSSWATSSIEEVAEAGPEALRWLQLYIYKDREVTKKLVRQAEKMGYKAIFVTVDTPYLGNRLDDVRNRFKLPPQLRMKNFETSTLSFSPEENFGDDSGLAAYVAKAIDPSISWEDIKWLRRLTSLPIVAKGILRGDDAREAVKHGLNGILVSNHGARQLDGVPATIDVLPEIVEAVEGKVEVFLDGGVRKGTDVLKALALGAKAVFVGRPIVWGLAFQGEKGVQDVLEILKEEFRLAMALSGCQNVKVIDKTLVRKNPLAVSKI
In the case of B1, the Km is reported as 74.5 µM.
